Paper PMC7582325, “How Human H1 Histone Recognizes DNA” (Molecules, 2020)

B1: ODN2 x ODNcom2 (dsDNA)
DNA 1: AGTGCCTGACCGTCGTCGAC
DNA 2: GTCGACGACGGTCAGGCACT
B2: d(pA)12 x d(pT)12 (dsDNA)
DNA 1: AAAAAAAAAAAA
DNA 2: TTTTTTTTTTTT
modifications: 5' phosphate
B3: ODN1 x ODNcom1 (dsDNA)
DNA 1: CAGACGATCAGCGACGCGTC
DNA 2: GACGCGTCGCTGATCGTCTG
B4: d(pA)20 x d(pT)20 (dsDNA)
DNA 1: AAAAAAAAAAAAAAAAAAAA
DNA 2: TTTTTTTTTTTTTTTTTTTT
modifications: 5' phosphate
B5: d(pA)16 x d(pT)16 (dsDNA)
DNA 1: AAAAAAAAAAAAAAAA
DNA 2: TTTTTTTTTTTTTTTT
modifications: 5' phosphate
B6: d(pA)6 + d(pT)6 mixture (mixed)
?: AAAAAA
DNA: TTTTTT
modifications: 5' phosphate
B7: d(pA)3 + d(pT)3 mixture (mixed)
?: AAA
DNA: TTT
modifications: 5' phosphate

The molecules below were run against T1, histone H1° (H1.0) (Homo sapiens, UniProt P07305 1-194) (assay: competition filter binding (I50)). Settings: 5' phosphate; 20 mM Tris-HCl pH 7.5, 5 mM MgCl2, 1 mM EDTA, 0.3 mg/mL H1, 1 h at 20 C; nitrocellulose filters; competition against 12.0 uM 32P 12-mer; mononucleotides ….
T1 sequence (P07305 whole entry): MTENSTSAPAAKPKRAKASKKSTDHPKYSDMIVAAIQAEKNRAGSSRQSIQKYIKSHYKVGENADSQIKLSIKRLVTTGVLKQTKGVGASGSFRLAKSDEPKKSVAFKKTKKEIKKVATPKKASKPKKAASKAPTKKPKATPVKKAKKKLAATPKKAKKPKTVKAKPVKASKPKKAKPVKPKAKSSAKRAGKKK
Work on d(pC)2 yielded a Kd of 4400 µM.

Each molecule was assayed against T2, H1° histone (human recombinant; H1 histone) (Homo sapiens, UniProt P07305) (assay: competition with […]'-[…]TAGAAGATCAAA, nitrocellulose filter binding). Settings: 20 mM Tris-HCl pH 7.5, 5 mM MgCl2, 1 mM EDTA, 20 °C, 0.3 mg/mL H1; Kd taken as I50 with 12 µM labelled 12-mer (its Kd); error not above 10–12%.
T2 construct: gene H1-0; commercial recombinant human H1° (BioLabs M2501S), free histone
T2 sequence (P07305 2-194): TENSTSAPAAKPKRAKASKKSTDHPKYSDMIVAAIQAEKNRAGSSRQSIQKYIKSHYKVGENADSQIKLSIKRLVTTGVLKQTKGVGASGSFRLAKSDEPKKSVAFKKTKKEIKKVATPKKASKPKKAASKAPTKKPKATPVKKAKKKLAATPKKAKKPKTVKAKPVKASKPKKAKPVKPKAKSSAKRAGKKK
With Nc1ncnc2c1ncn2[C@H]1C[C@H](O)[C@@H](COP(=O)(O)O)O1 [dAMP] the Kd was 16000 µM. In the case of Cc1cn([C@H]2C[C@H](O)[C@@H](COP(=O)(O)O)O2)c(=O)[nH]c1=O [dTMP], the Kd is reported as 13000 µM. Molecule Nc1ccn([C@H]2C[C@H](O)[C@@H](COP(=O)(O)O)O2)c(=O)n1 [dCMP] has a Kd of 10000 µM.

Each molecule was assayed against T1, histone H1° (H1.0) (assay: competition filter binding (I50); 5 mM Mg2+; 20 mM Tris-HCl pH 7.5, 5 mM MgCl2, 1 mM EDTA, 0.3 mg/mL H1, 1 h at 20 C; nitrocellulose filters; competition against 12.0 uM 32P 12-mer; mononucleotides dAMP/dCMP/dTMP not listed). Settings: protein: commercial.
Work on TTTTTTTTTTTTTTTT (ssDNA, 5' phosphate) [d(pT)16] yielded a Kd of 5 µM. For GTCGACGACGGTCAGGCACT (ssDNA) [ODNcom2], the Kd was 4.1 µM. TTTTTTTTTTTTTTTTTTTT (ssDNA, 5' phosphate) [d(pT)20] was tested, and the Kd was 4.6 µM. AAAA (ssDNA, 5' phosphate) [d(pA)4] showed a Kd of 240 µM. CCCCCCCCCCCC (ssDNA, 5' phosphate) [d(pC)12] gave a Kd of 20 µM. In the case of TAAAATCAAA (ssDNA) [10-mer d(TAAAATCAAA)], the Kd is reported as 30 µM. For TTTTTTTT (ssDNA, 5' phosphate) [d(pT)8], the Kd was 76 µM. Molecule TATAATCTTA (ssDNA) [10-mer d(TATAATCTTA)] has a Kd of 28 µM. Molecule AAAAAAAAAAAA (ssDNA, 5' phosphate) [d(pA)12] has a Kd of 14 µM. Molecule TTTTTT (ssDNA, 5' phosphate) [d(pT)6] has a Kd of 48 µM. CCCCCCCC (ssDNA, 5' phosphate) [d(pC)8] was tested, and the Kd was 34 µM. For CCCCCC (ssDNA, 5' phosphate) [d(pC)6], the Kd was 61 µM. AGTGCCTGACCGTCGTCGAC (ssDNA) [ODN2] was tested, and the Kd was 3.8 µM. With ATG (ssDNA, 5' phosphate) [d(pATG)] the Kd was 1500 µM. With TTTTTTTTTT (ssDNA, 5' phosphate) [d(pT)10] the Kd was 25 µM. TTTT (ssDNA, 5' phosphate) [d(pT)4] was tested, and the Kd was 96 µM. In the case of AAAAAAAAAAAAAAAA (ssDNA, 5' phosphate) [d(pA)16], the Kd is reported as 10 µM. Work on AAAAA (ssDNA, 5' phosphate) [d(pA)5] yielded a Kd of 70 µM. AAAAAA (ssDNA, 5' phosphate) [d(pA)6] was tested, and the Kd was 57 µM. CCCCCCCCCC (ssDNA, 5' phosphate) [d(pC)10] was tested, and the Kd was 25 µM. Work on TTTTT (ssDNA, 5' phosphate) [d(pT)5] yielded a Kd of 75 µM. GACGCGTCGCTGATCGTCTG (ssDNA) [ODNcom1] gave a Kd of 3.7 µM. AAAAAAAA (ssDNA, 5' phosphate) [d(pA)8] gave a Kd of 48 µM. In the case of CCCCC (ssDNA, 5' phosphate) [d(pC)5], the Kd is reported as 300 µM. In the case of TTTTTTTTTTTT (ssDNA, 5' phosphate) [d(pT)12], the Kd is reported as 10 µM. Work on TAGAAGATCAAA (ssDNA) [12-mer hetero-ON, unlabeled competitor] yielded a Kd of 12 µM. TCCCATCAAA (ssDNA) [10-mer d(TCCCATCAAA)] gave a Kd of 30 µM. AAAAAAAAAA (ssDNA, 5' phosphate) [d(pA)10] was tested, and the Kd was 28 µM. For AAAAAAAAAAAAAAAAAAAA (ssDNA, 5' phosphate) [d(pA)20], the Kd was 10 µM. Work on CAGACGATCAGCGACGCGTC (ssDNA) [ODN1] yielded a Kd of 4 µM.

Same assay, conditions: protein: commercial; blunt
Work on B1 yielded a Kd of 2.9 µM. In the case of B2, the Kd is reported as 7.5 µM. With B3 the Kd was 2.7 µM. In the case of B4, the Kd is reported as 3 µM. Work on B5 yielded a Kd of 3.8 µM.

Same assay, conditions: protein: commercial; mixture of complementary strands, not a preformed duplex
B6 showed a Kd of 55 µM. Molecule B7 has a Kd of 1000 µM.

What follows are molecules tested against T1, histone H1° (H1.0) (assay: filter binding; 5 mM Mg2+; 20 mM Tris-HCl pH 7.5, 5 mM MgCl2, 1 mM EDTA, 0.3 mg/mL H1, 1 h at 20 C; nitrocellulose filters; competition against 12.0 uM 32P 12-mer; mononucleotides dAMP/dCMP/dTMP not listed). Settings: protein: commercial; label: 5'-32P.
With TAGAAGATCAAA (ssDNA, 5' phosphate (32P)) [12-mer hetero-ON 32P probe] the Kd was 12 µM.
